# From paper PMC9258132, “Multi-omics profiling identifies a deregulated FUS-MAP1B axis in ALS/FTD–associated UBQLN2 mutants”
# Molecular target: MBP-FUS-His6 WT (UniProt P35637 1-526)
# Assay: EMSA; 5 mM MgCl2, 0.1 mg/ml yeast tRNA; 5 nM RNA, 0-10 uM protein; 20 mM NaPO4 pH 8, 150 mM NaCl, 5% glycerol, 1 mM DTT, 5 mM MgCl2, 0.5 mg/ml BSA, 0.1 mg/ml yeast tRNA, 1 U/ul RNase inhibitor, 20 min RT; 6% native PAGE in 0.5x TBE
# Conditions: protein: recombinant; tags: N-terminal MBP, C-terminal His6; hairpin with 3' single-stranded tail
# Chain of MBP-FUS-His6 WT (P35637 whole entry): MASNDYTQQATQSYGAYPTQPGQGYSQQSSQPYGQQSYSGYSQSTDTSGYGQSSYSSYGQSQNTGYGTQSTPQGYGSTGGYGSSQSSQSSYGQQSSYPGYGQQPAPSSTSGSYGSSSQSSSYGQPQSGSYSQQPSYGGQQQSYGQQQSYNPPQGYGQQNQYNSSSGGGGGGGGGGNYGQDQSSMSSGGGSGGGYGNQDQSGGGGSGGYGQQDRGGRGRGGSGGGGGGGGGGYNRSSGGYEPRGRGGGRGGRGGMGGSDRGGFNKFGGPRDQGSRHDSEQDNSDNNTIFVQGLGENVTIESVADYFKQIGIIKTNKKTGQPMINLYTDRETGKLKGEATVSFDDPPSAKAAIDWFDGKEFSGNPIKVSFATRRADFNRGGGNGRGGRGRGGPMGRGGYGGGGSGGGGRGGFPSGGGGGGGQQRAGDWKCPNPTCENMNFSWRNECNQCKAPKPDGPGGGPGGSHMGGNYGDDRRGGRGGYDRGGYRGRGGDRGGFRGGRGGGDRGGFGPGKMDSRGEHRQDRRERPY
binder,measurement,value
GGAUCUUUAACUACUCAAGAUACUGAACAUGACAUGGUA (structured_RNA) [SON pre-mRNA stem loop with downstream GGU motif],binding result,binds
